Experiments:
clh1_rat Cltc [1] = molecular target: clh1_rat Cltc (UniProt P11442)
clh1_rat Cltc [2] = molecular target: clh1_rat Cltc (UniProt P11442); remark: listed apart in the source
clh1_rat Cltc [3] = molecular target: clh1_rat Cltc (UniProt P11442); remark: listed apart in the source

Chain of clh1_rat Cltc (P11442 whole entry): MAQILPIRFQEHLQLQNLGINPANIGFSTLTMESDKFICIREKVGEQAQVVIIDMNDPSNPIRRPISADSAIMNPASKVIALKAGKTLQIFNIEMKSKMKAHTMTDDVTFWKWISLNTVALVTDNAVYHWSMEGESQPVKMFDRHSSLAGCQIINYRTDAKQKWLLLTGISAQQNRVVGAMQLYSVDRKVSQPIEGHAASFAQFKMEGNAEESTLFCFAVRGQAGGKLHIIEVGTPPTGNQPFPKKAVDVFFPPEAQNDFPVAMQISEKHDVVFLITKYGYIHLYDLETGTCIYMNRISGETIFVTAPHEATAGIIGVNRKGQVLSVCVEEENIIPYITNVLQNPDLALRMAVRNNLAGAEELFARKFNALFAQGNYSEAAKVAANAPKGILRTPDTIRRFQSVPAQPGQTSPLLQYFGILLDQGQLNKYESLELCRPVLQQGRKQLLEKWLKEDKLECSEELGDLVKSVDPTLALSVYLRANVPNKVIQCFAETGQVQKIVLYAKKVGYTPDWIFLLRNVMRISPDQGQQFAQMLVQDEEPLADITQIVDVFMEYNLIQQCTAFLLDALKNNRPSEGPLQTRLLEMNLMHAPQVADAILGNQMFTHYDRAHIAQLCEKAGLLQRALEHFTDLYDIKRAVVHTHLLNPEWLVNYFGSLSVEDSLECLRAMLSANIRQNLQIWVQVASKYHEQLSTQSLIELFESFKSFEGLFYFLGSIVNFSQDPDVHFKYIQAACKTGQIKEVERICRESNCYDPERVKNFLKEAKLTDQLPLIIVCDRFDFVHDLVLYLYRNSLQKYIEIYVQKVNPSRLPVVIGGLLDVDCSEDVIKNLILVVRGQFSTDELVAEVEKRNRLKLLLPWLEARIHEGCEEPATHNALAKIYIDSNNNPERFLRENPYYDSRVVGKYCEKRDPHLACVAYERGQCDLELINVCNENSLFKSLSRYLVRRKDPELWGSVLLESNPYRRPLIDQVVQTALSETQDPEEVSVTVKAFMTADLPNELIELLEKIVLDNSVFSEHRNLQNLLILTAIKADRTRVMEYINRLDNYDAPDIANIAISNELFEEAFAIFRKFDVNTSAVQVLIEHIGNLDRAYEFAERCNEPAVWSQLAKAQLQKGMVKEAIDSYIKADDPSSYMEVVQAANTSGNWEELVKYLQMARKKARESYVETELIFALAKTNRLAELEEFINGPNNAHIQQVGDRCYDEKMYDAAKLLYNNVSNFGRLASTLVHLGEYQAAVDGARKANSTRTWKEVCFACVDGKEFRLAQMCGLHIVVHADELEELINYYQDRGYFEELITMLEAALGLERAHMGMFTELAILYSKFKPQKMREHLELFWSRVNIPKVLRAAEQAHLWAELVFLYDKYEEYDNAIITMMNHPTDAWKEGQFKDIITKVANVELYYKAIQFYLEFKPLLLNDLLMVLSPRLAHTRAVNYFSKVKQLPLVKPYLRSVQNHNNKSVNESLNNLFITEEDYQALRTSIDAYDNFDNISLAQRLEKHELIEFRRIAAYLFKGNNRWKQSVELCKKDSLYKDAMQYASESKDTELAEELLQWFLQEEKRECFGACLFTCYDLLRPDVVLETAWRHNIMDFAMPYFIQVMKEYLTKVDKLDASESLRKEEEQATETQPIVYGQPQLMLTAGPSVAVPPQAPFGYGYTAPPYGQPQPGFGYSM
Chain of Inositol polyphosphate 5-phosphatase OCRL (Homo sapiens), Q01968 L73S (Q01968 whole entry L73S): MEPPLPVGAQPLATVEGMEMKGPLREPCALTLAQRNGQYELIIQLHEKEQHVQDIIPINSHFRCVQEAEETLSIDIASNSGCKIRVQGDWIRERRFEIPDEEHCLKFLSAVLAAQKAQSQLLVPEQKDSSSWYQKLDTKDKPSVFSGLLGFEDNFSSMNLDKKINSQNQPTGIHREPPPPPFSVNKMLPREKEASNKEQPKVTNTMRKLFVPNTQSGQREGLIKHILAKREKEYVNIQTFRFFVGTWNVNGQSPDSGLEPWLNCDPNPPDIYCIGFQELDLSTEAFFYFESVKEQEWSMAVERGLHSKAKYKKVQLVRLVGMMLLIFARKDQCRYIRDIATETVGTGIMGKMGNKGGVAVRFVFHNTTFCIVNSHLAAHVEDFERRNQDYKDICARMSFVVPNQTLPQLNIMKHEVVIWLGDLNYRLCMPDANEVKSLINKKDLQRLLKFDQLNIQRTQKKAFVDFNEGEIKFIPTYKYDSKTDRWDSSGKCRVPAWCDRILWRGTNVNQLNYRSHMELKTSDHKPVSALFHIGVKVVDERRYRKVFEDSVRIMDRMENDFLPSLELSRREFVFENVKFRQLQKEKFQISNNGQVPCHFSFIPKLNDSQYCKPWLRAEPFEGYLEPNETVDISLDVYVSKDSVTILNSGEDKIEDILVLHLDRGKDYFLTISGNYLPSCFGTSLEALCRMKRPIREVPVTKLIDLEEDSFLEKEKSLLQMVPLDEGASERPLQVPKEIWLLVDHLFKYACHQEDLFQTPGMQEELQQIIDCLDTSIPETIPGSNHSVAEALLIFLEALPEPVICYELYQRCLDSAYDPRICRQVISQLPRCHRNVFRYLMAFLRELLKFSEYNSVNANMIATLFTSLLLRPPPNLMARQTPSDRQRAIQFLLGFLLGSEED
Chain of Inositol polyphosphate 5-phosphatase OCRL (Homo sapiens), Q01968 I76Q (Q01968 whole entry I76Q): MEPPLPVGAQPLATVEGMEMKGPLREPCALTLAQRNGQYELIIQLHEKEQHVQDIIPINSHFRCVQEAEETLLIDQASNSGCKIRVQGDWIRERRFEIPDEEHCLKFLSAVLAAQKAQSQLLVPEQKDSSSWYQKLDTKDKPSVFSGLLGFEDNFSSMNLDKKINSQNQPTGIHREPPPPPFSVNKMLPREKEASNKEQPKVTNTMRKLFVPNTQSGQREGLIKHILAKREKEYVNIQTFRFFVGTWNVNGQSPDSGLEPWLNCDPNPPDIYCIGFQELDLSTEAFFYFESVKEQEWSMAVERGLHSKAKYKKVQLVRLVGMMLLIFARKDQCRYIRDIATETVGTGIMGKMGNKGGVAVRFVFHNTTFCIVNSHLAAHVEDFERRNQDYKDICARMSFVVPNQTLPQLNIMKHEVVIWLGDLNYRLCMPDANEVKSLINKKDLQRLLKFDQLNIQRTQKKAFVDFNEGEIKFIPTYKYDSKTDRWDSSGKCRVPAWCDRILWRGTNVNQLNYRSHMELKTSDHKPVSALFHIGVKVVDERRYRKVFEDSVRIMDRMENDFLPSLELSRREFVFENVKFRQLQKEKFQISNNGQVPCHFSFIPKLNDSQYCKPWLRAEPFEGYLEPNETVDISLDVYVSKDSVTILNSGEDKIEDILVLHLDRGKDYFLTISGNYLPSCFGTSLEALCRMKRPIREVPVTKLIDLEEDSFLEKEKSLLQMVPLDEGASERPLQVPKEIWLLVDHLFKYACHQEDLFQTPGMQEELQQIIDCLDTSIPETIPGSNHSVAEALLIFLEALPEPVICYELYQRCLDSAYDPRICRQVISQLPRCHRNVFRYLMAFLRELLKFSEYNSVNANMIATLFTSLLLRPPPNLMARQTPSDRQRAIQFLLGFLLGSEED
Chain of Inositol polyphosphate 5-phosphatase OCRL (Homo sapiens), Q01968 I74Q (Q01968 whole entry I74Q): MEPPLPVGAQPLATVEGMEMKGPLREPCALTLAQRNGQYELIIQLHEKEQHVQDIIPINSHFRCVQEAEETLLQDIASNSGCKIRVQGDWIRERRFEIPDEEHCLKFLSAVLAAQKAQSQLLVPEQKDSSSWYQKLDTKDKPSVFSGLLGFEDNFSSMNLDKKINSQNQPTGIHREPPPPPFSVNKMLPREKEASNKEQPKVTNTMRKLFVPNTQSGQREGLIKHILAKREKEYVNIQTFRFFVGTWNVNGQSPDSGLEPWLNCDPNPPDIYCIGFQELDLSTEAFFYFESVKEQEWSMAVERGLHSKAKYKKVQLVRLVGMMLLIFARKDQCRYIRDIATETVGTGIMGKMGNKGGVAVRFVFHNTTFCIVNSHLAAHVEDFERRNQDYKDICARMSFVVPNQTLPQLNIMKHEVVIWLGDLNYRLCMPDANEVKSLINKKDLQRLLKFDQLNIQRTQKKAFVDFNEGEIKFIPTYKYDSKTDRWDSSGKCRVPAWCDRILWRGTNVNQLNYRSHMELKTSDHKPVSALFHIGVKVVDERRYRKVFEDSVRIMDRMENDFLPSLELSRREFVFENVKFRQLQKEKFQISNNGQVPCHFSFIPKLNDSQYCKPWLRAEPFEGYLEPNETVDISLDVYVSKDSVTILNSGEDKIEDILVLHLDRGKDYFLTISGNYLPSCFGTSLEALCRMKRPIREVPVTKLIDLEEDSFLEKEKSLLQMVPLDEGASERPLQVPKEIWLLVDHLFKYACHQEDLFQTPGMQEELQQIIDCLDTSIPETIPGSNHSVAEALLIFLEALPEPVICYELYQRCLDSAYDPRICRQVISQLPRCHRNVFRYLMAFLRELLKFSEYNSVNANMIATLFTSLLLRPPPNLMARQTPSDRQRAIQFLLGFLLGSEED

## Inositol polyphosphate 5-phosphatase OCRL (Homo sapiens), Q01968 I74Q
clh1_rat Cltc [1]
  effect of a mutation on the interaction: disrupting interaction

## Inositol polyphosphate 5-phosphatase OCRL (Homo sapiens), Q01968 I76Q
clh1_rat Cltc [2]
  effect of a mutation on the interaction: disrupting interaction

## Inositol polyphosphate 5-phosphatase OCRL (Homo sapiens), Q01968 L73S
clh1_rat Cltc [3]
  effect of a mutation on the interaction: disrupting interaction

From IntAct's records for PubMed 19536138
